# Data: patent US20240018502A1
# Where a chain is given by its changes, count along the chain named. Numbers in names are those of the source.
# B1: MTSP-1 I41S/D60bT/F60eS/Y60gW/D96K/F97G/ins97aV/T98P/F99L/C122S/G151H/Q175L/Q192D (enzyme)
# chain: VVGGTDADEGEWPWQVSLHALGQGHSCGASLISPNWLVSAAHCYIDTRGSRWSDPTQWTAFLGLHDQSQRSAPGVQERRLKRIISHPFFNKGVPLDYDIALLELEKPAEYSSMVRPISLPDASHVFPAGKAIWVTGWGHTQYGGTHALILQKGEIRVINQTTCENLLPQLITPRMMCVGFLSGGVDSCDGDSGGPLSSVEADGRIFQAGVVSWGDGCAQRNKPGVYTRLPLFRDWIKENTGV
# B2: MTSP-1 Q38H/D60bT/F60eS/Y60gW/D96K/F97G/ins97aV/T98P/F99L/C122S/G151H/Q175L/Q192D (enzyme)
# chain: B1 chain with Q23H, S26I
# B3: MTSP-1 protease domain Q38K/I41G/Y60gW/F99L/C122S/G151N/Q192A (enzyme)
# chain: VVGGTDADEGEWPWQVSLHALGKGHGCGASLISPNWLVSAAHCYIDDRGFRWSDPTQWTAFLGLHDQSQRSAPGVQERRLKRIISHPFFNDFTLDYDIALLELEKPAEYSSMVRPISLPDASHVFPAGKAIWVTGWGHTQYGGTNALILQKGEIRVINQTTCENLLPQQITPRMMCVGFLSGGVDSCAGDSGGPLSSVEADGRIFQAGVVSWGDGCAQRNKPGVYTRLPLFRDWIKENTGV
# B4: MTSP-1 protease domain I41D/D96E/F99L/C122S/G151N/Q192T/D217E (enzyme)
# chain: B3 chain with K23Q, G26D, W52Y, D91E, A188T, D214E
# B5: MTSP-1 protease domain I41S/F99M/C122S/G151N/Q175L/Q192G (enzyme)
# chain: B3 chain with K23Q, G26S, W52Y, L94M, Q169L, A188G
# B6: MTSP-1 protease domain Y59F/C122S/G151N/Q192T (enzyme)
# chain: B3 chain with K23Q, G26I, Y44F, W52Y, L94F, A188T
# B7: MTSP-1 protease domain I41S/F99L/C122S/G151H/Q175L/Q192V (enzyme)
# chain: B3 chain with K23Q, G26S, W52Y, N145H, Q169L, A188V
# B8: MTSP-1 protease domain Q38R/I41R/Y60gL/F99L/C122S/G151N/Q192G (enzyme)
# chain: B3 chain with K23R, G26R, W52L, A188G
# B9: MTSP-1 protease domain Q38F/I41S/Y60gA/C122S/G151N/Q192R (enzyme)
# chain: B3 chain with K23F, G26S, W52A, L94F, A188R
# B10: MTSP-1 protease domain I41G/F99L/C122S/G151N/Q175R/Q192A (enzyme)
# chain: B3 chain with K23Q, W52Y, Q169R
# B11: MTSP-1 protease domain I41E/F99L/C122S/G151N/Q175G (enzyme)
# chain: B3 chain with K23Q, G26E, W52Y, Q169G, A188Q
# B12: MTSP-1 protease domain I41E/F99L/C122S/Q175G/Q192T (enzyme)
# chain: B3 chain with K23Q, G26E, W52Y, N145G, Q169G, A188T
# B13: MTSP-1 protease domain I41D/F99L/C122S/G151N (enzyme)
# chain: B3 chain with K23Q, G26D, W52Y, A188Q
# B14: MTSP-1 protease domain Q38K/I41R/Y60gG/F99L/C122S/G151N/Q192G (enzyme)
# chain: B3 chain with G26R, W52G, A188G
# B15: MTSP-1 protease domain I41D/F60eI/D96E/F99L/C122S/G151N/Q192T (enzyme)
# chain: B3 chain with K23Q, G26D, F50I, W52Y, D91E, A188T
# B16: MTSP-1 protease domain I41D/G43A/D96E/F99L/C122S/G151N/Q192T (enzyme)
# chain: B3 chain with K23Q, G26D, G28A, W52Y, D91E, A188T
# B17: MTSP-1 protease domain I41S/C122S/G151N/Q175D/Q192R (enzyme)
# chain: B3 chain with K23Q, G26S, W52Y, L94F, Q169D, A188R
# B18: MTSP-1 protease domain I41E/C122S/G151N/Q175L/Q192A (enzyme)
# chain: B3 chain with K23Q, G26E, W52Y, L94F, Q169L
# B19: MTSP-1 protease domain I41S/F99L/C122S/Q175P/Q192V (enzyme)
# chain: B3 chain with K23Q, G26S, W52Y, N145G, Q169P, A188V
# B20: MTSP-1 protease domain I41D/F99L/C122S/G151N/Q192T/D217E (enzyme)
# chain: B3 chain with K23Q, G26D, W52Y, A188T, D214E
# B21: MTSP-1 protease domain I41S/F99L/C122S/G151N/Q175P (enzyme)
# chain: B3 chain with K23Q, G26S, W52Y, Q169P, A188Q
# B22: MTSP-1 protease domain Q38K/I41S/Y60gW/F99L/C122S/G151N/Q192G (enzyme)
# chain: B3 chain with G26S, A188G
# B23: MTSP-1 protease domain Q38H/I41S/Y60gW/C122S/G151H/Q192A (enzyme)
# chain: B3 chain with K23H, G26S, L94F, N145H
# B24: MTSP-1 protease domain I41S/F99L/C122S/G151N/Q175P/Q192V (enzyme)
# chain: B3 chain with K23Q, G26S, W52Y, Q169P, A188V
# B25: MTSP-1 protease domain I41D/F99L/C122S/I136M/G151N/Q192T/D217L/K224R (enzyme)
# chain: B3 chain with K23Q, G26D, W52Y, I131M, A188T, D214L, K221R
# B26: MTSP-1 protease domain I41E/F99L/C122S/G151N/Q192S (enzyme)
# chain: B3 chain with K23Q, G26E, W52Y, A188S
# B27: MTSP-1 protease domain D96E/C122S/G151N/Q192T (enzyme)
# chain: B3 chain with K23Q, G26I, W52Y, D91E, L94F, A188T
# B28: MTSP-1 I41D/Y59F/D96E/F99L/C122S/G151N/Q192T (enzyme)
# chain: B3 chain with K23Q, G26D, Y44F, W52Y, D91E, A188T
# B29: MTSP-1 protease domain I41D/D96E/C122S/G151N/Q192T (enzyme)
# chain: B3 chain with K23Q, G26D, W52Y, D91E, L94F, A188T
# B30: MTSP-1 protease domain I41E/F99L/C122S/G151N/Q175G/Q192T (enzyme)
# chain: B3 chain with K23Q, G26E, W52Y, Q169G, A188T
# B31: MTSP-1 protease domain I41S/F99M/C122S/G151N/Q175G/Q192R (enzyme)
# chain: B3 chain with K23Q, G26S, W52Y, L94M, Q169G, A188R
# B32: MTSP-1 protease domain I41S/F99M/C122S/G151N/Q175E/Q192R (enzyme)
# chain: B3 chain with K23Q, G26S, W52Y, L94M, Q169E, A188R
# B33: MTSP-1 protease domain Q38R/I41S/Y60gW/F99L/C122S/G151N/Q192E (enzyme)
# chain: B3 chain with K23R, G26S, A188E
# B34: MTSP-1 protease domain I41E/F99L/C122S/G151N/Q175R/Q192T (enzyme)
# chain: B3 chain with K23Q, G26E, W52Y, Q169R, A188T
# B35: MTSP-1 protease domain I41S/F99M/C122S/G151N/Q175P/Q192S (enzyme)
# chain: B3 chain with K23Q, G26S, W52Y, L94M, Q169P, A188S
# B36: MTSP-1 protease domain I41D/G43A/F99L/C122S/G151N/Q192T/P232S/K239R (enzyme)
# chain: B3 chain with K23Q, G26D, G28A, W52Y, A188T, P229S, K236R
# B37: MTSP-1 protease domain F99L/C122S/G151N/Q192T (enzyme)
# chain: B3 chain with K23Q, G26I, W52Y, A188T
# B38: MTSP-1 protease domain I41E/F99L/C122S/G151N/Q175L/Q192A (enzyme)
# chain: B3 chain with K23Q, G26E, W52Y, Q169L
# B39: MTSP-1 protease domain I41D/F99L/M117T/C122S/G151N/Q192T/A204D/D217E (enzyme)
# chain: B3 chain with K23Q, G26D, W52Y, M112T, A188T, A200D, D214E
# B40: MTSP-1 protease domain I41G/F99L/C122S/G151N/Q192A (enzyme)
# chain: B3 chain with K23Q, W52Y
# B41: MTSP-1 protease domain Q38R/I41R/F99L/C122S/G151N/Q192G (enzyme)
# chain: B3 chain with K23R, G26R, W52Y, A188G
# B42: MTSP-1 protease domain Q38H/I41S/D60bT/F60eS/Y60gW/D96K/F97G/F99L/C122S/G151H/Q175L/Q192D (enzyme)
# chain: B3 chain with K23H, G26S, D47T, F50S, D91K, F92G, N145H, Q169L, A188D
# B43: MTSP-1 protease domain I41E/F99L/C122S/G151N/Q175R/Q192H (enzyme)
# chain: B3 chain with K23Q, G26E, W52Y, Q169R, A188H
# B44: MTSP-1 protease domain I41D/Y59F/F99L/C122S/G151N/Q192T/V213A (enzyme)
# chain: B3 chain with K23Q, G26D, Y44F, W52Y, A188T, V210A
# B45: MTSP-1 protease domain I41S/C122S/G151N/Q175R/Q192R (enzyme)
# chain: B3 chain with K23Q, G26S, W52Y, L94F, Q169R, A188R
# B46: MTSP-1 protease domain I41E/F99L/C122S/G151N/Q192V (enzyme)
# chain: B3 chain with K23Q, G26E, W52Y, A188V
# B47: MTSP-1 protease domain I41D/C122S/G151N/Q192T/D217E (enzyme)
# chain: B3 chain with K23Q, G26D, W52Y, L94F, A188T, D214E
# B48: MTSP-1 protease domain I41D/D96E/F99L/C122S/G151N/Q192T (enzyme)
# chain: B3 chain with K23Q, G26D, W52Y, D91E, A188T
# B49: MTSP-1 I41D/Y59F/C122S/G151N/Q192T (enzyme)
# chain: B3 chain with K23Q, G26D, Y44F, W52Y, L94F, A188T
# Target: plasma purified human complement protein C3 (human) (UniProt P01024)
# Experiment: cell-based or functional assay
# Chain of plasma purified human complement protein C3 (human) (P01024 23-667, chain 1 of 2): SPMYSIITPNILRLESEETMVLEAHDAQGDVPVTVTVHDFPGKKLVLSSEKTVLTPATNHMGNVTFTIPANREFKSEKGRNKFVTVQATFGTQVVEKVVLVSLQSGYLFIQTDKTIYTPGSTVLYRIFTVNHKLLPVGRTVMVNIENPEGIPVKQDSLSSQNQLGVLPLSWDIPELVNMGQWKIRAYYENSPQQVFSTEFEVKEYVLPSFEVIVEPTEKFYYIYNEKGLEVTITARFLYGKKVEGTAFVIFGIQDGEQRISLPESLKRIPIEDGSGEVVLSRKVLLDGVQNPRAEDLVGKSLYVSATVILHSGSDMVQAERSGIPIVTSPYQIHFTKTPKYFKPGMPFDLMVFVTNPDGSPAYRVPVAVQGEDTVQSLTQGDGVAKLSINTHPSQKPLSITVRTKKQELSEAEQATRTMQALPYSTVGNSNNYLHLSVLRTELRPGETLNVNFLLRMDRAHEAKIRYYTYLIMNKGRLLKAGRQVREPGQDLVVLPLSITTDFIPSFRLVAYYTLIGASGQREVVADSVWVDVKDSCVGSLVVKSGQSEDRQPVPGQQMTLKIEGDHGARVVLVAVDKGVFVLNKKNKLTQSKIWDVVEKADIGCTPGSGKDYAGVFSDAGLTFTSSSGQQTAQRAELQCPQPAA
# Chain of plasma purified human complement protein C3 (human) (P01024 672-1663, chain 2 of 2): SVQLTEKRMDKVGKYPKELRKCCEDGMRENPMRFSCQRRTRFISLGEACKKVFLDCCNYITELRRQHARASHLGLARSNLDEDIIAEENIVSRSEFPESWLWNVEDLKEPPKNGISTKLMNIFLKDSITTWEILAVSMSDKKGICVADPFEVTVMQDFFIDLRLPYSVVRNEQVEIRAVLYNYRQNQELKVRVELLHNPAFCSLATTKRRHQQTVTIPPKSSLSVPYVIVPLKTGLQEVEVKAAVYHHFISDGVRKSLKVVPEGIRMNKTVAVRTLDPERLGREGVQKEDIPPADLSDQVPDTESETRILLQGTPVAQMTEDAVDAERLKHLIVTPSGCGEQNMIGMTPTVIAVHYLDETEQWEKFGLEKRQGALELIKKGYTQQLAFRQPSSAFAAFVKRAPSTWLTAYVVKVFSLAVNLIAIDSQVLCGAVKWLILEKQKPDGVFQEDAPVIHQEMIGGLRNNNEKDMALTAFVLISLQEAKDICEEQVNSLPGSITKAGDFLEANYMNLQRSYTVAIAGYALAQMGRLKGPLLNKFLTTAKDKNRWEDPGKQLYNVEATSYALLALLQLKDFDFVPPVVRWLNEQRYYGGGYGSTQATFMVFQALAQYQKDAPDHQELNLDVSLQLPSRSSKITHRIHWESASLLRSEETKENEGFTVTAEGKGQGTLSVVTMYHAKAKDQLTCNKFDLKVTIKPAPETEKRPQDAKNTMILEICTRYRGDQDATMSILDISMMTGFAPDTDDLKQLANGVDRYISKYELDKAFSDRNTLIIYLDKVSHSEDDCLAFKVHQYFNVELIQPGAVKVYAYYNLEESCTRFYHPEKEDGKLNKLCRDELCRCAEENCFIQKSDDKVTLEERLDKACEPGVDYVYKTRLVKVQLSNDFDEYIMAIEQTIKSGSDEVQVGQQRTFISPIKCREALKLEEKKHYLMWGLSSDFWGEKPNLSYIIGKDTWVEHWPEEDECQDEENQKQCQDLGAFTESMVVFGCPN
Binder,EC50 of hC3 cleavage,EC50 hC3 cleavage
B1,17.1 nM,
B2,215 nM,
B3,,9.96 nM
B4,,27.6 nM
B5,,62 nM
B6,,288 nM
B7,,20.9 nM
B8,,388 nM
B9,,33.1 nM
B10,,74.5 nM
B11,,20 nM
B12,,33.9 nM
B13,,16.9 nM
B14,,335 nM
B15,,47.9 nM
B16,,45 nM
B17,,96.8 nM
B18,,45 nM
B19,,64.3 nM
B20,,22 nM
B21,,13.9 nM
B22,,35.1 nM
B23,,8.96 nM
B24,,35.8 nM
B25,,32.2 nM

Binder,EC50 of hC3 cleavage,EC50 hC3 cleavage
B26,,112 nM
B27,,298 nM
B28,54.9 nM,
B29,,78.8 nM
B30,,30.2 nM
B31,,95.3 nM
B32,,297 nM
B33,,116 nM
B34,,155 nM
B35,,139 nM
B36,,37.6 nM
B37,,225 nM
B38,,28.5 nM
B39,,25.3 nM
B40,,61 nM
B41,,248 nM
B42,,7.34 nM
B43,,102 nM
B44,,414 nM
B45,,134 nM
B46,,156 nM
B47,,34.2 nM
B48,,51.5 nM
B49,56.7 nM,
